{"source": "patent US20260248972A1", "about": "“DUAL RECEPTOR TARGETING RADIOLIGANDS AND USES THEREOF RELATED APPLICATIONS” (priority 2022, published 2026)", "test": "in vivo", "conditions": "BALB/c nude, mouse, in vivo, iv, total radioactivity", "description": "To a 0.5 M NaOAc buffer (20-50 μL, pH=4.5) was added 4 μL of exemplary or comparator compound in DMSO stock solution (2000 μM) and 2 mCi ^177Lu (ITM Isotope Technologies Munich), the resulting mixture was heated to 95° C. for 15 min. The resulting product was analyzed by radio-TLC and radio-HPLC (column: Shim-pack GIST 5 μm 4.6*150 mm; buffer A: 0.2% formic acid H2O; buffer B: 0.1% formic acid acetonitrile; flow rate: 1 mL/min; gradient: 0-5 min: 10% B to 95% B; then 5-8 min: 95% B). The labelled products were used immediately or diluted by a PBS buffer containing freshly added 3 mg/mL ascorbate.\nAll animal care and experimental procedure were performed by following the animal protocols approved by the ethics committee of China Institute of Radiation Protection. The BALB/c nude mice (Charles River, Beijing) were utilized for these studies. Mice were below 5 per cage in sterile, microisolator cages under temperature- and humidity-controlled conditions with a 12 h light/12 h dark schedule and fed irradiated rodent chow and reverse osmosis (RO) sterile water ad libitum. In preparation for tumor cell inoculations, mice were anesthetized with isoflurane (RWD Life Science Inc.) at an induction rate of 4% and maintained at a rate of 2.5% with 0.4 L oxygen delivered via precision vaporizer and a non-rebreathing apparatus. These mice received subcutaneous rear flank injections of approximately 4×10^6 AR42J cells ([…] pancreatic cancer cell line) suspended in 200 μL of phosphate-buffered saline (PBS) and Matrigel (Corning) (1/1). Xenografted tumors were allowed to grow for ~2-4 weeks post-inoculation and ranged in mass from 0.05 to 0.50 g (average tumor size, 0.20 g). […] The mice were euthanized, and the tissues and organs were excised from the animals at 4, 24 and 72 h post-injection. The tissues and organs were weighed, counted in a PerkinElmer 2480 WIZARD2 γ counter, and the percent injected dose (% ID) and % ID/g of each organ or tissue were calculated.", "data": [{"smiles": "C[C@@H](O)[C@H](NC(=O)[C@@H]1CSSC[C@H](NC(=O)[C@@H](Cc2ccccc2)NC(=O)[C@H](CCCCNC(=O)c2cccc(NC(=O)N[C@@H]3CN(C4CCCCC4)c4ccccc4N(CC(=O)C(C)(C)C)C3=O)c2)NC(=O)COCCOCCNC(=O)CN2CCN(CC(=O)O)CCN(CC(=O)O)CCN(CC(=O)O)CC2)C(=O)N[C@@H](Cc2ccc(O)cc2)C(=O)N[C@H](Cc2c[nH]c3ccccc23)C(=O)N[C@@H](CCCCN)C(=O)N[C@@H]([C@@H](C)O)C(=O)N1)C(=O)O", "note": "[Compound I-35, DOTA-OEG-K(Z360)-f[CYwKTC]T-OH]", "values": [{"measurement": "tissue to tissue ratio at 24 h", "setting": "T/K Tumor/Kidney ratio", "value": 2.9}, {"measurement": "tissue to tissue ratio at 24 h", "setting": "T/L Tumor/Liver ratio", "value": 3.5}, {"measurement": "tissue to tissue ratio at 24 h", "setting": "T/P Tumor/Pancreas ratio", "value": 19}, {"measurement": "tissue to tissue ratio at 24 h", "setting": "T/Sp Tumor/Spleen ratio", "value": 38}, {"measurement": "tissue to tissue ratio at 24 h", "setting": "T/St Tumor/Stomach ratio", "value": 5.8}, {"measurement": "tissue uptake at 24 h", "setting": "uptake Kidney", "value": 6.1, "unit": "%ID/g"}, {"measurement": "tissue uptake at 24 h", "setting": "uptake Liver", "value": 5.06, "unit": "%ID/g"}, {"measurement": "tissue uptake at 24 h", "setting": "uptake Pancreas", "value": 0.96, "unit": "%ID/g"}, {"measurement": "tissue uptake at 24 h", "setting": "uptake Spleen", "value": 0.47, "unit": "%ID/g"}, {"measurement": "tissue uptake at 24 h", "setting": "uptake Stomach", "value": 3.09, "unit": "%ID/g"}, {"measurement": "tissue uptake at 24 h", "setting": "uptake Tumor", "value": 17.8, "unit": "%ID/g"}]}, {"smiles": "C[C@@H](O)[C@H](NC(=O)[C@@H]1CSSC[C@H](NC(=O)[C@@H](Cc2ccccc2)NC(=O)CCOCCOCCOCCNC(=O)[C@H](CCCCNC(=O)c2cccc(NC(=O)N[C@@H]3CN(C4CCCCC4)c4ccccc4N(CC(=O)C(C)(C)C)C3=O)c2)NC(=O)CN2CCN(CC(=O)O)CCN(CC(=O)O)CCN(CC(=O)O)CC2)C(=O)N[C@@H](Cc2ccc(O)cc2)C(=O)N[C@H](Cc2c[nH]c3ccccc23)C(=O)N[C@@H](CCCCN)C(=O)N[C@@H]([C@@H](C)O)C(=O)N1)C(=O)O", "note": "[Compound I-38, DOTA-K(Z360)-PEG3-f[CYwKTC]T-OH]", "values": [{"measurement": "tissue to tissue ratio at 24 h", "setting": "T/K Tumor/Kidney ratio", "value": 1.8}, {"measurement": "tissue to tissue ratio at 24 h", "setting": "T/L Tumor/Liver ratio", "value": 6.1}, {"measurement": "tissue to tissue ratio at 24 h", "setting": "T/P Tumor/Pancreas ratio", "value": 18}, {"measurement": "tissue to tissue ratio at 24 h", "setting": "T/Sp Tumor/Spleen ratio", "value": 72}, {"measurement": "tissue to tissue ratio at 24 h", "setting": "T/St Tumor/Stomach ratio", "value": 4.2}, {"measurement": "tissue uptake at 24 h", "setting": "uptake Kidney", "value": 7.9, "unit": "%ID/g"}, {"measurement": "tissue uptake at 24 h", "setting": "uptake Liver", "value": 2.3, "unit": "%ID/g"}, {"measurement": "tissue uptake at 24 h", "setting": "uptake Pancreas", "value": 0.8, "unit": "%ID/g"}, {"measurement": "tissue uptake at 24 h", "setting": "uptake Spleen", "value": 0.2, "unit": "%ID/g"}, {"measurement": "tissue uptake at 24 h", "setting": "uptake Stomach", "value": 3.4, "unit": "%ID/g"}, {"measurement": "tissue uptake at 24 h", "setting": "uptake Tumor", "value": 14.3, "unit": "%ID/g"}]}, {"smiles": "C[C@@H](O)[C@H](NC(=O)[C@@H]1CSSC[C@H](NC(=O)[C@@H](Cc2ccccc2)NC(=O)CCOCCOCCOCCOCCOCCOCCNC(=O)[C@H](CCCCNC(=O)c2cccc(NC(=O)N[C@@H]3CN(C4CCCCC4)c4ccccc4N(CC(=O)C(C)(C)C)C3=O)c2)NC(=O)CN2CCN(CC(=O)O)CCN(CC(=O)O)CCN(CC(=O)O)CC2)C(=O)N[C@@H](Cc2ccc(O)cc2)C(=O)N[C@H](Cc2c[nH]c3ccccc23)C(=O)N[C@@H](CCCCN)C(=O)N[C@@H]([C@@H](C)O)C(=O)N1)C(=O)O", "note": "[Compound I-40, DOTA-K(Z360)-PEG6-f[CYwKTC]T-OH]", "values": [{"measurement": "tissue to tissue ratio at 24 h", "setting": "T/K Tumor/Kidney ratio", "value": 2}, {"measurement": "tissue to tissue ratio at 24 h", "setting": "T/L Tumor/Liver ratio", "value": 5.7}, {"measurement": "tissue to tissue ratio at 24 h", "setting": "T/P Tumor/Pancreas ratio", "value": 59}, {"measurement": "tissue to tissue ratio at 24 h", "setting": "T/Sp Tumor/Spleen ratio", "value": 53}, {"measurement": "tissue to tissue ratio at 24 h", "setting": "T/St Tumor/Stomach ratio", "value": 10}, {"measurement": "tissue uptake at 24 h", "setting": "uptake Kidney", "value": 8.9, "unit": "%ID/g"}, {"measurement": "tissue uptake at 24 h", "setting": "uptake Liver", "value": 3.1, "unit": "%ID/g"}, {"measurement": "tissue uptake at 24 h", "setting": "uptake Pancreas", "value": 0.3, "unit": "%ID/g"}, {"measurement": "tissue uptake at 24 h", "setting": "uptake Spleen", "value": 0.3, "unit": "%ID/g"}, {"measurement": "tissue uptake at 24 h", "setting": "uptake Stomach", "value": 1.8, "unit": "%ID/g"}, {"measurement": "tissue uptake at 24 h", "setting": "uptake Tumor", "value": 17.9, "unit": "%ID/g"}]}, {"smiles": "C[C@@H](O)[C@H](NC(=O)[C@@H]1CSSC[C@H](NC(=O)[C@@H](Cc2ccccc2)NC(=O)[C@H](CCCCNC(=O)c2cccc(NC(=O)N[C@@H]3CN(C4CCCCC4)c4ccccc4N(CC(=O)C(C)(C)C)C3=O)c2)NC(=O)COCCOCCNC(=O)COCCOCCNC(=O)CN2CCN(CC(=O)O)CCN(CC(=O)O)CCN(CC(=O)O)CC2)C(=O)N[C@@H](Cc2ccc(O)cc2)C(=O)N[C@H](Cc2c[nH]c3ccccc23)C(=O)N[C@@H](CCCCN)C(=O)N[C@@H]([C@@H](C)O)C(=O)N1)C(=O)O", "note": "[Compound I-41, DOTA-OEG-OEG-K(Z360)-f[CYwKTC]T-OH]", "values": [{"measurement": "tissue to tissue ratio at 24 h", "setting": "T/K Tumor/Kidney ratio", "value": 1.7}, {"measurement": "tissue to tissue ratio at 24 h", "setting": "T/L Tumor/Liver ratio", "value": 10}, {"measurement": "tissue to tissue ratio at 24 h", "setting": "T/P Tumor/Pancreas ratio", "value": 24}, {"measurement": "tissue to tissue ratio at 24 h", "setting": "T/Sp Tumor/Spleen ratio", "value": 55}, {"measurement": "tissue to tissue ratio at 24 h", "setting": "T/St Tumor/Stomach ratio", "value": 4}, {"measurement": "tissue uptake at 24 h", "setting": "uptake Kidney", "value": 9.7, "unit": "%ID/g"}, {"measurement": "tissue uptake at 24 h", "setting": "uptake Liver", "value": 1.5, "unit": "%ID/g"}, {"measurement": "tissue uptake at 24 h", "setting": "uptake Pancreas", "value": 0.7, "unit": "%ID/g"}, {"measurement": "tissue uptake at 24 h", "setting": "uptake Spleen", "value": 0.3, "unit": "%ID/g"}, {"measurement": "tissue uptake at 24 h", "setting": "uptake Stomach", "value": 4, "unit": "%ID/g"}, {"measurement": "tissue uptake at 24 h", "setting": "uptake Tumor", "value": 16.1, "unit": "%ID/g"}]}]}
